{"source": "patent US10906977B2", "about": "“Enhancing the therapeutic activity of immune checkpoint inhibitor” (Maine Medical Center Research Institute, priority 2016, dated 2021)", "key": {"[1]": {"target": "T1, integrin α10β1 (Homo sapiens, UniProt O75578+P05556)", "T1 construct": "purchased R&D Systems", "T1 sequence (O75578 23-1122 limits assumed)": "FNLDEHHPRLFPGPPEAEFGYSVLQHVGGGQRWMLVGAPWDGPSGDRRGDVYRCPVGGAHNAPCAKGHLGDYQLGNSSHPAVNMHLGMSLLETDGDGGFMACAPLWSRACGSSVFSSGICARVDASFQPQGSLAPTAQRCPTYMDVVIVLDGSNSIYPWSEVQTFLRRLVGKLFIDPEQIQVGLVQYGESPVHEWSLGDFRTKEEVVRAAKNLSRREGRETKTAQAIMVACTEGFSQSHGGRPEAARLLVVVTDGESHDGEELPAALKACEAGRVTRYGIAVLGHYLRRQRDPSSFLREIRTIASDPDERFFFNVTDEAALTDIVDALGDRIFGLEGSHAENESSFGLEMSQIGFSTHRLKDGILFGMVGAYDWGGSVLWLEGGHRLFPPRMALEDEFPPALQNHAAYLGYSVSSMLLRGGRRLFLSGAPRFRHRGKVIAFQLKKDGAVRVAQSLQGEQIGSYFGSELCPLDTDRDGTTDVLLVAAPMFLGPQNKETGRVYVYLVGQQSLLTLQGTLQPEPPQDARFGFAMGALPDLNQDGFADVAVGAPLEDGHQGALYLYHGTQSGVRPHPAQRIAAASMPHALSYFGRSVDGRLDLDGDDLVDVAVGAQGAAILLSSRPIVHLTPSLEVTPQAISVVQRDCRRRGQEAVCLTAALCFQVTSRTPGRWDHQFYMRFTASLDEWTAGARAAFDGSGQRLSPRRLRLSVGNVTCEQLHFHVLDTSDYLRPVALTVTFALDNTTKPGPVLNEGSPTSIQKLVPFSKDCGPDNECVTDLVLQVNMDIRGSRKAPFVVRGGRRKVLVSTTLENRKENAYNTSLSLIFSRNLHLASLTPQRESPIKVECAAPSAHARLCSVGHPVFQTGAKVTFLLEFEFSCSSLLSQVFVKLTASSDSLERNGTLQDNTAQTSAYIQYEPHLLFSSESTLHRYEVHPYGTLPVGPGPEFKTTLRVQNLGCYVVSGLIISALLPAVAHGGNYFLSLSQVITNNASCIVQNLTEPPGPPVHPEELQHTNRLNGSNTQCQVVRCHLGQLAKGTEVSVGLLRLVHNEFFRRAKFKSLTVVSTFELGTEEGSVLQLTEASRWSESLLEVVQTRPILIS", "T1 sequence (P05556 21-728 limits assumed)": "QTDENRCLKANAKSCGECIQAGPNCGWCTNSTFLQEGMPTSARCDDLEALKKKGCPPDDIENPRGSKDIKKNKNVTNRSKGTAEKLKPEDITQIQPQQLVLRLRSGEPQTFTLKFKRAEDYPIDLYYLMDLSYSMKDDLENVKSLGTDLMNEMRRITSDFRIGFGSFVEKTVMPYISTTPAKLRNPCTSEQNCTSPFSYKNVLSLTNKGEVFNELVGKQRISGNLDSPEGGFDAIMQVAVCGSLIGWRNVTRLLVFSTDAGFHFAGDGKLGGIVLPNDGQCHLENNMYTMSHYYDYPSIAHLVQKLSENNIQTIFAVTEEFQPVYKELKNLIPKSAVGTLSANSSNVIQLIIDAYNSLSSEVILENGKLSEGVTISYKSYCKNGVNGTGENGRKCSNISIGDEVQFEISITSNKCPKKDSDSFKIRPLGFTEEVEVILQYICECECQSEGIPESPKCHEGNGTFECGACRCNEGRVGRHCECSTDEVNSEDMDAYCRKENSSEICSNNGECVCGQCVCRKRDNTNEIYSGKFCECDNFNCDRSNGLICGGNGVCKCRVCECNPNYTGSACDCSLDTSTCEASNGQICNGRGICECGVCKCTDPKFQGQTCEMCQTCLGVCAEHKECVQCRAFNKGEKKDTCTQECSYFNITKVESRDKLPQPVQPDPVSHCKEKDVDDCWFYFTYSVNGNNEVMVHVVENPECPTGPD", "assay": "Solid-phase integrin binding to synthetic HU177 epitope (PGF peptide)", "details": "peptide immobilized 100 ug/ml; FIG. 23F", "procedure": "(§1) Plates were coated with 25 μg/ml of native or denatured (boiled 15 minutes) collagen. Collagen epitope peptide PGF and Cont-peptides were immobilized at 100 ug/ml. Integrins (0-2.0 μg/ml) were diluted in binding buffer containing 20 mM Tris, 15 mM NaCl, 1 mM MgCl2, 0.2 mM MnCl2, 0.5% BSA pH 7.4 as described (13). Integrins were allowed to bind for 1 hr and plates washed and incubated with anti-integrin antibodies (1:100 dilution) for 1 hr. Plates were washed and incubated with HRP-labeled secondary antibodies (1:5000 dilution). In a second assay, integrins (0.5 μg/ml) were coated in binding buffer and plates were washed, blocked as before and denatured (boiled 15 minutes) collagen was added (0-10.0 μg/ml). Denatured collagen was detected with anti-collagen antibody (1:1000). For integrin blocking ELISAs, wells were coated with denatured collagen and pre-treated (0.1 μg/ml) with anti-HU177 or control antibody. Following washing, wells were incubated with integrins (2.0 μg/ml) and binding was detected as described. Assays were carried out at least 3 times."}, "[2]": {"target": "T2, integrin α2β1 (Homo sapiens, UniProt P05556+P17301)", "T2 construct": "purchased R&D Systems", "T2 sequence (P17301 30-1132 limits assumed)": "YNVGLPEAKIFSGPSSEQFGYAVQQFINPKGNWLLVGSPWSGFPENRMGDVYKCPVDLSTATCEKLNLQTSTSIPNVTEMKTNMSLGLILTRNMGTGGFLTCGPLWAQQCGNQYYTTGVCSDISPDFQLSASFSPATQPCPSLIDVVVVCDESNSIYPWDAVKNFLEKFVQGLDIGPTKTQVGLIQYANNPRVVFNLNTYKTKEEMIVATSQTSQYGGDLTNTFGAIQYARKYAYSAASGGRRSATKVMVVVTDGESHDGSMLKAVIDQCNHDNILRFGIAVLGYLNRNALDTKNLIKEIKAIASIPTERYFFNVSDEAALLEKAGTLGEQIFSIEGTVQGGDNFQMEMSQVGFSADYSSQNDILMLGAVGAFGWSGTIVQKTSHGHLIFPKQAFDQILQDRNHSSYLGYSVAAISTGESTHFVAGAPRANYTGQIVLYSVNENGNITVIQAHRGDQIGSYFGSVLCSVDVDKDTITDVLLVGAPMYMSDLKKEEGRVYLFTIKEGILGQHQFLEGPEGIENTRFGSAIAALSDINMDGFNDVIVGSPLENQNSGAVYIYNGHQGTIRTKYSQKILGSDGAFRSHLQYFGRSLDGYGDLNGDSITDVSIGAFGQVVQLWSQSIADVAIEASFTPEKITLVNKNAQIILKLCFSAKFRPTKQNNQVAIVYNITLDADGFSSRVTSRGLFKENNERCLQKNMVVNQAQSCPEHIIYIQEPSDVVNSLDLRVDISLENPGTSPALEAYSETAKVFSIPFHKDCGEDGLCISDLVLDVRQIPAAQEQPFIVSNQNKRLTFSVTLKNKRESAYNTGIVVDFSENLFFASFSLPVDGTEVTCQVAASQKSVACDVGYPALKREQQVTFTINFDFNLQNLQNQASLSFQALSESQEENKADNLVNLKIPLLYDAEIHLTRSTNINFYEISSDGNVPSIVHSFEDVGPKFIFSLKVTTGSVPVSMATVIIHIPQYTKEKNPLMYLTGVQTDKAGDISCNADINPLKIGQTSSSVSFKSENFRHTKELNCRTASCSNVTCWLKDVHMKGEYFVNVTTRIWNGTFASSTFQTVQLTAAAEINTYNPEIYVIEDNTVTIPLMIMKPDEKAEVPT", "T2 sequence (P05556 21-728 limits assumed)": "as the sequence (P05556 21-728 limits assumed) above", "assay": "Solid-phase integrin binding to synthetic HU177 epitope (PGF peptide)", "details": "peptide immobilized 100 ug/ml; FIG. 23F", "procedure": "as §1"}, "[3]": {"target": "T3, integrin αvβ3 (Homo sapiens, UniProt P05106+P06756)", "T3 construct": "purchased R&D Systems (Minneapolis, Minn.)", "T3 sequence (P06756 31-992 limits assumed)": "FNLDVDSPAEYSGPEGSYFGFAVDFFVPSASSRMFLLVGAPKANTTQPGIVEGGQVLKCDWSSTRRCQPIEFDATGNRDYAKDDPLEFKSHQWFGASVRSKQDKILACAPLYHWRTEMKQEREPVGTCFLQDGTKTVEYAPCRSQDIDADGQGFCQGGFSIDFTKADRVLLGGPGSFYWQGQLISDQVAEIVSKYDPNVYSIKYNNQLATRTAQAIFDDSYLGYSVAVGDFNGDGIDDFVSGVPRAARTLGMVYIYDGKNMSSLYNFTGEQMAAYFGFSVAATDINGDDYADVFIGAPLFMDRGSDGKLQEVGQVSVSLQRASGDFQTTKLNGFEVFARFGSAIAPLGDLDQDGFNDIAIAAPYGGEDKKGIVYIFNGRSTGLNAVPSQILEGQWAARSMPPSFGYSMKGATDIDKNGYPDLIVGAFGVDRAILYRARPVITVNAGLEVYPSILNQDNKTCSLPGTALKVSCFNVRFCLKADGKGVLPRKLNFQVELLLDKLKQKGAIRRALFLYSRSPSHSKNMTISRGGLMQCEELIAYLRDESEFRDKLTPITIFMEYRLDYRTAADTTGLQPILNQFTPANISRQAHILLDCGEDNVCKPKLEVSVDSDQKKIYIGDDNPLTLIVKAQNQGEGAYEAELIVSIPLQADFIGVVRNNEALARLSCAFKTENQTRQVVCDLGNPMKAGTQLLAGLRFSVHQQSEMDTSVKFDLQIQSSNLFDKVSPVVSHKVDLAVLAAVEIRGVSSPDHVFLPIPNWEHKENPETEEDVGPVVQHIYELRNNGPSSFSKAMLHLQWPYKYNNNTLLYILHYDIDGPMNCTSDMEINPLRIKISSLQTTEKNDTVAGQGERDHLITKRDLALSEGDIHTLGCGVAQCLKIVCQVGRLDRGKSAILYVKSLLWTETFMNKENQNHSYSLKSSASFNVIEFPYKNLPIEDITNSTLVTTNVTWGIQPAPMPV", "T3 sequence (P05106 27-718 limits assumed)": "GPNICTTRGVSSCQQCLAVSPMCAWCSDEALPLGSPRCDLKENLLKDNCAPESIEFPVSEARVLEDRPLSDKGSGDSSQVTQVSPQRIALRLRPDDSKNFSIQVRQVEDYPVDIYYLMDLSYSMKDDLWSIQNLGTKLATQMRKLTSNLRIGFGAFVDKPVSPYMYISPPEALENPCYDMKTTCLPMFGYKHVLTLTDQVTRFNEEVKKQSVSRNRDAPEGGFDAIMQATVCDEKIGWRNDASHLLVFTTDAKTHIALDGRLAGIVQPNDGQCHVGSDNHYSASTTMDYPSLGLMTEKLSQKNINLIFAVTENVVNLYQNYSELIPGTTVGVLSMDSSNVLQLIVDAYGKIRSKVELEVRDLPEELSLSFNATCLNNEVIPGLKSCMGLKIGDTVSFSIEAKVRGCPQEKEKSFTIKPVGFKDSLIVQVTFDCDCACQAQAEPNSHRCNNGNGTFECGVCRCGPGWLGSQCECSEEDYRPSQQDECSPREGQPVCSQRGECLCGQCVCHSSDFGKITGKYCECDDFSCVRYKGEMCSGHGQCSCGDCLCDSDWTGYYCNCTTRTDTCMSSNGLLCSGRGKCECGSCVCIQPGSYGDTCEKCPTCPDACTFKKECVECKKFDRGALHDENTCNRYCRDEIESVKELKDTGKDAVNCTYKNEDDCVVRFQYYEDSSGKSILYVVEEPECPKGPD", "assay": "Solid-phase integrin binding to synthetic HU177 epitope (PGF peptide)", "details": "peptide immobilized 100 ug/ml; FIG. 23F", "procedure": "as §1"}, "[4]": {"target": "T1, integrin α10β1", "assay": "Solid-phase integrin binding to denatured collagen", "procedure": "as §1"}, "[5]": {"tested_on": "TGF-β", "assay": "Serum cytokines in B16F10 tumor bearing mice injected with cPG peptide (ELISA)", "type": "in vivo, C57BL/6 mice", "details": "injected 3× per week; serum after 14 days; FIG. 26A", "procedure": "FIG. 26A-FIG. 26C is a series of bar charts showing that the injection of a peptide (cPG) containing the HU177 collagen epitope induces expression of the immune suppressive growth factor TGF-β in mouse circulation. C57BL/6 mice were injected subcutaneously with B16F10 melanoma cells (0.5×10^6) and tumors were allowed to form. Mice were next injected 3× per week with […] per mouse of cPG peptide. Serum was […] after 14 days. Serum was diluted in assay buffer and the relative levels of cytokines were examined by ELISA. FIG. 26A is a bar graph wherein data bars represent relative levels of TGF-β as determined by ELISA from control (DMSO) treated mouse and two different cPG peptide treated mice. FIG. 26B is a bar graph wherein data bars represent relative levels of IL-4 as determined by ELISA from control (DMSO) treated mouse and two different cPG peptide treated mice. FIG. 26C is a bar graph wherein data bars represent relative levels of IL-1β as determined by ELISA from control (DMSO) treated mouse and two different cPG peptide treated mice.\nC57BL/6 mice were injected subcutaneously with B16F10 melanoma cells (0.5×10^6) and tumors were allowed to form. […] FIG. 26A is a bar graph wherein data bars represent relative levels of TGF-β as determined by ELISA from control (DMSO) treated mouse and two different cPG peptide treated mice. […]"}, "[6]": {"tested_on": "PDL-1", "assay": "PDL-1 protein in M21 melanoma cells on immobilized XL313 epitope (Western blot)", "type": "cell-based, human", "details": "15 minute incubation; vs uncoated wells; FIG. 15", "procedure": "Integrin αvβ3 expressing melanoma cells (M21) were seeded on control uncoated wells or wells immobilized with the XL313 cryptic collagen epitope (RGDKGE (SEQ ID NO: 1)). Following a 15 minute incubation cell lysates were prepared. The relative levels of PDL-1 or loading control β-actin were assessed by Western blot.\nIntegrin αvβ3 expressing melanoma cells (M21) were seeded onto control uncoated wells or wells immobilized with the XL313 cryptic collagen epitope (RGDKGE (SEQ ID NO: 1)) (FIG. 15). Following an incubation period, cell lysates were prepared and relative levels of PDL-1 were assessed."}, "[7]": {"tested_on": "PDL-1", "assay": "PDL-1 protein in cells attached to denatured collagen-IV (Western blot)", "type": "cell-based", "details": "M21, CCL-49, HUVEC; vs native collagen-IV; FIG. 14", "procedure": "FIG. 14A and FIG. 14B are blots of integrin αvβ3 expressing melanoma cells (M21 and […]) and FIG. 14C is a blot depicting that endothelial cells (HUVEC) were allowed to attach to well coated with either a non-αvβ3 binding ligand (native collagen-IV) or an αvβ3 binding ligand (denatured collagen-IV). Whole cell lysates were prepared and the relative levels of PDL-1 or loading control β-actin were assessed by Western blot.\nIntegrin αvβ3 expressing melanoma cells M21 (FIG. 14A) and CCL-49 (FIG. 14B) and endothelial cells (HUVEC) (FIG. 14C) were attached to wells coated with either a non-αvβ3 binding ligand (native collagen-IV) or an αvβ3 binding ligand (denatured collagen-IV). Whole cell lysates were prepared and the relative levels of PDL-1 or β-actin loading control were assessed."}, "[8]": {"target": "T4, integrin α1β1 (Homo sapiens, UniProt P05556+P56199)", "T4 construct": "purchased R&D Systems (Minneapolis, Minn.)", "assay": "Solid-phase integrin binding to denatured collagen", "details": "FIG. 23A", "procedure": "as §1"}, "[9]": {"target": "T2, integrin α2β1", "assay": "Solid-phase integrin binding to denatured collagen", "details": "FIG. 23A", "procedure": "as §1"}, "[10]": {"target": "T3, integrin αvβ3", "assay": "Solid-phase integrin binding to denatured collagen", "details": "FIG. 23A", "procedure": "as §1"}, "[11]": {"tested_on": "SKOV-3 cells", "assay": "Cell adhesion on native or denatured collagen", "type": "cell-based, human", "details": "FIG. 20A", "procedure": "(§2) The wells of non-tissue culture forty-eight well cluster plates were coated for 12 hrs at 4° C. with 5 μg/ml of native or denatured (boiled 15 minutes) collagen prepared as described above. SKOV-3 and fibroblasts were suspended in adhesion buffer containing RPMI 1640, 1 mM MgCl2, 0.2 mM MnCl2 and 0.5% BSA (13) and 1×10^5 cells were added in the presence or absence of anti-HU177 or control antibodies (100 μg/ml). Cells were allowed to attach for 25 minutes. Non-attached cells were removed by washing and attached cells stained with crystal violet as described (13). Wells were washed and the cell-associated crystal violet was eluted with 100 ul per well of 10% acetic acid. Cell adhesion was quantified by measuring the optical density of the eluted crystal violet as described (15). Assays were completed at least 3×."}, "[12]": {"tested_on": "fibroblasts", "assay": "Cell adhesion on native or denatured collagen", "type": "cell-based, human", "details": "FIG. 20B", "procedure": "as §2"}, "[13]": {"tested_on": "SKOV-3 cells", "assay": "Transwell cell migration on native or denatured collagen", "type": "cell-based, human", "details": "FIG. 20C", "procedure": "(§3) Transwell membranes (8.0 um pore size) were coated with 5 μg/ml of native or denatured collagen for 12 hrs at […] as described previously (13). Migration buffer containing RPMI 1640, 1 mM MgCl2, 0.2 mM MnCl2 and 0.5% BSA in the presence or absence of 5× concentrated serum free SKOV-3 CM or 20 ng/ml FGF-2 was placed in the lower chambers. SKOV-3 or fibroblasts (1×105) were resuspended in migration buffer containing RPMI 1640, 1 mM MgCl2, 0.2 mM MnCl2 and 0.5% BSA in the presence or absence of antibodies directed to the HU177 epitope, or α10β1, (10 μg/ml) or 100 uM of the MEK inhibitor ([…]). Cells were added to the top chamber and allowed to migrate from 2 to 4 hrs. Cells remaining on the top of the membranes were removed and cells that had migrated to the underside of the membrane were quantified by direct cell counts of crystal violet stained cells or by measuring the optical density of eluted cell-associated crystal violet dye as previously described (15). Assays were completed at least 3×."}, "[14]": {"tested_on": "fibroblasts", "assay": "Transwell cell migration on native or denatured collagen", "type": "cell-based, human", "details": "FIG. 20D", "procedure": "as §3"}}}
{"substance": "CPGFPGFC [PGF peptide]", "values": [{"measurement": "binding of α10β1 to the synthetic HU177 epitope, relative to α2β1", "setting": "[1]", "result": 4, "unit": "fold"}, {"measurement": "direct binding of α2β1 to the synthetic HU177 epitope", "setting": "[2]", "result": "bound"}, {"measurement": "direct binding of αvβ3 to the synthetic HU177 epitope", "setting": "[3]", "result": "failed to bind"}, {"measurement": "competition of binding of α10β1 to denatured collagen", "setting": "[4]; soluble peptide, FIG. 23G", "result": "approximately 60%"}, {"measurement": "expression of TGF-β in mouse serum", "setting": "[5]", "result": "induce the expression"}]}
{"substance": "RGDKGE (immobilized on wells) [XL313 epitope]", "values": [{"measurement": "levels of PDL-1 protein in M21 melanoma cells following binding", "setting": "[6]", "result": "enhanced levels of PDL-1 protein"}]}
{"substance": "denatured collagen-IV: αvβ3 binding ECM ligand coated on wells", "values": [{"measurement": "levels of PDL-1 protein in melanoma and endothelial cells following binding", "setting": "[7]", "result": "enhanced levels of PDL-1 protein"}]}
{"substance": "denatured collagen: collagen type-I denatured by boiling the solution for 15 minutes", "values": [{"measurement": "binding of denatured collagen and integrin α10β1", "setting": "[4]; FIG. 23A, 23B", "result": "dose dependently bound"}, {"measurement": "binding of integrin α1β1 to denatured collagen", "setting": "[8]", "result": "minimal interactions"}, {"measurement": "binding of integrin α2β1 to denatured collagen", "setting": "[9]", "result": "dose dependently bound"}, {"measurement": "binding of integrin αvβ3 to denatured collagen", "setting": "[10]", "result": "dose dependently bound"}, {"measurement": "enhancement of SKOV-3 adhesion as compared to native collagen", "setting": "[11]", "result": 38, "unit": "%"}, {"measurement": "enhancement of fibroblast adhesion as compared to native collagen", "setting": "[12]", "result": 29, "unit": "%"}, {"measurement": "enhancement of SKOV-3 migration as compared to native collagen", "setting": "[13]", "result": 34, "unit": "%"}, {"measurement": "enhancement of fibroblast migration as compared to native collagen", "setting": "[14]", "result": 19, "unit": "%"}]}
